Test results published in US20100297131A1.

What was measured:
[1] = target: human erythrocytes, untreated (uncharacterized neuraminidase sensitive, trypsin resistant receptor on the surface of the erythrocyte) (human); test: erythrocyte rosetting on transfected COS7 cells, normalized to 5% transfection efficiency
[2] = target: neuraminidase-treated human erythrocytes (human); test: erythrocyte rosetting on transfected COS7 cells, erythrocytes pretreated with neuraminidase

## PfRH1 region II (RII) expressed on the surface of COS7 cells as a GFP fusion protein (from UniProt P86148 334-1000)
[1]
  binding activity (%): > 70%
[2]
  fold reduction of binding against untreated erythrocytes: 10 fold

## PfRH1 region III (RIII) expressed on the surface of COS7 cells as a GFP fusion protein
[1]
  binding activity (%): < 10%

## PfRH1 region IV (RIV) expressed on the surface of COS7 cells as a GFP fusion protein
[1]
  binding activity (%): < 10%

## PfRH1 region VI (RVI) expressed on the surface of COS7 cells as a GFP fusion protein
[1]
  binding activity (%): < 10%
